The values that follow come from the Human Domainome abundance scans (Beltran et al. 2025).

B1: V(D)J recombination-activating protein 2, residues 415 to 491; numbered along this chain, P55895 (parent)
chain: YWITCCPTCDVDINTWVPFYSTELNKPAMIYCSHGDGHWVHAQCMDLAERTLIHLSAGSNKYYCNEHVEIARALHTP

± gives the uncertainty stated by the source.

The data set covers variants of B1. Nature of the data set: abundance fitness (aPCA) (normalised: wild type 0, dead -1); higher = more abundant; growth selection in yeast, the domain comes from the species named. The settings on record: Homo sapiens.
Consider YWITCCPTCDVDINTWVPFYSTELNKPAMIYCSHGDGHWVHAQCMDLAERTLIHLSAGENKYYCNEHVEIARALHTP, for which the abundance fitness turned out to be 0.002 ± 0.12.
YWITCCPTCDVDINTWVPFYSTELNKPAMIYCSHGDGHWVHAQCMDLAERTLIHLSAGPNKYYCNEHVEIARALHTP: the abundance fitness stood at 0.062 ± 0.091.
Take YWITCCPTCDVDINTWVPFYSTELNKPAMIYCSHGDGHWVHAQCMDLAERTLIHLSAGGNKYYCNEHVEIARALHTP: the abundance fitness turned out to be 0.019 ± 0.044.
For the variant YWITCCPTCDVDINTWVPFYSTELNKPAMIYCSHGDGHWVHAQCMDLAERTLIHLSAGANKYYCNEHVEIARALHTP, the abundance fitness was 0.078 ± 0.073.
As for YWITCCPTCDVDINTWVPFYSTELNKPAMIYCSHGDGHWVHAQCMDLAERTLIHLSAGHNKYYCNEHVEIARALHTP, the abundance fitness was -0.043 ± 0.21.
Next, YWITCCPTCDVDINTWVPFYSTELNKPAMIYCSHGDGHWVHAQCMDLAERTLIHLSAGINKYYCNEHVEIARALHTP: 0.103 ± 0.16; YWITCCPTCDVDINTWVPFYSTELNKPAMIYCSHGDGHWVHAQCMDLAERTLIHLSAGLNKYYCNEHVEIARALHTP: -0.087 ± 0.085.
As to YWITCCPTCDVDINTWVPFYSTELNKPAMIYCSHGDGHWVHAQCMDLAERTLIHLSAGRNKYYCNEHVEIARALHTP, the abundance fitness was -0.115 ± 0.059.
The figure for YWITCCPTCDVDINTWVPFYSTELNKPAMIYCSHGDGHWVHAQCMDLAERTLIHLSAGTNKYYCNEHVEIARALHTP is 0.02 ± 0.093; for YWITCCPTCDVDINTWVPFYSTELNKPAMIYCSHGDGHWVHAQCMDLAERTLIHLSAGNNKYYCNEHVEIARALHTP it is -0.25 ± 0.21.
Next, YWITCCPTCDVDINTWVPFYSTELNKPAMIYCSHGDGHWVHAQCMDLAERTLIHLSAGYNKYYCNEHVEIARALHTP: -0.031 ± 0.12; YWITCCPTCDVDINTWVPFYSTELNKPAMIYCSHGDGHWVHAQCMDLAERTLIHLSAGFNKYYCNEHVEIARALHTP: -0.088 ± 0.097.
As for YWITCCPTCDVDINTWVPFYSTELNKPAMIYCSHGDGHWVHAQCMDLAERTLIHLSAGQNKYYCNEHVEIARALHTP, the abundance fitness is -0.224 ± 0.077.
For the variant YWITCCPTCDVDINTWVPFYSTELNKPAMIYCSHGDGHWVHAQCMDLAERTLIHLSAGCNKYYCNEHVEIARALHTP, the abundance fitness is -0.005 ± 0.1.
The figure for YWITCCPTCDVDINTWVPFYSTELNKPAMIYCSHGDGHWVHAQCMDLAERTLIHLSAGKNKYYCNEHVEIARALHTP is 0.053 ± 0.11; for YWITCCPTCDVDINTWVPFYSTELNKPAMIYCSHGDGHWVHAQCMDLAERTLIHLSAGWNKYYCNEHVEIARALHTP it is -0.225 ± 0.071.
As to YWITCCPTCDVDINTWVPFYSTELNKPAMIYCSHGDGHWVHAQCMDLAERTLIHLSAGMNKYYCNEHVEIARALHTP, the abundance fitness was -0.042 ± 0.09.
On to YWITCCPTCDVDINTWVPFYSTELNKPAMIYCSHGDGHWVHAQCMDLAERTLIHLSAGVNKYYCNEHVEIARALHTP, for which the abundance fitness is -0.068 ± 0.068.
Regarding YWITCCPTCDVDINTWVPFYSTELNKPAMIYCSHGDGHWVHAQCMDLAERTLIHLSYGSNKYYCNEHVEIARALHTP, the abundance fitness is -0.108 ± 0.19.
For the variant YWITCCPTCDVDINTWVPFYSTELNKPAMIYCSHGDGHWVHAQCMDLAERTLIHLSWGSNKYYCNEHVEIARALHTP, the abundance fitness was -0.276 ± 0.11.
Next, YWITCCPTCDVDINTWVPFYSTELNKPAMIYCSHGDGHWVHAQCMDLAERTLIHLSVGSNKYYCNEHVEIARALHTP: -0.14 ± 0.077.
With YWITCCPTCDVDINTWVPFYSTELNKPAMIYCSHGDGHWVHAQCMDLAERTLIHLSAGSFKYYCNEHVEIARALHTP, the abundance fitness is -0.273 ± 0.16.
The figure for YWITCCPTCDVDINTWVPFYSTELNKPAMIYCSHGDGHWVHAQCMDLAERTLIHLSAGSVKYYCNEHVEIARALHTP is -0.04 ± 0.068.
Take YWITCCPTCDVDINTWVPFYSTELNKPAMIYCSHGDGHWVHAQCMDLAERTLIHLSAGSEKYYCNEHVEIARALHTP: the abundance fitness is 0.046 ± 0.083.
Next, YWITCCPTCDVDINTWVPFYSTELNKPAMIYCSHGDGHWVHAQCMDLAERTLIHLSAGSPKYYCNEHVEIARALHTP: -0.118 ± 0.08; YWITCCPTCDVDINTWVPFYSTELNKPAMIYCSHGDGHWVHAQCMDLAERTLIHLSAGSGKYYCNEHVEIARALHTP: -0.017 ± 0.066.
The figure for YWITCCPTCDVDINTWVPFYSTELNKPAMIYCSHGDGHWVHAQCMDLAERTLIHLSAGSKKYYCNEHVEIARALHTP is -0.114 ± 0.12.
The figure for YWITCCPTCDVDINTWVPFYSTELNKPAMIYCSHGDGHWVHAQCMDLAERTLIHLSAGSHKYYCNEHVEIARALHTP is -0.084 ± 0.054.
Take YWITCCPTCDVDINTWVPFYSTELNKPAMIYCSHGDGHWVHAQCMDLAERTLIHLSAGSTKYYCNEHVEIARALHTP: the abundance fitness was -0.022 ± 0.063.
Next, YWITCCPTCDVDINTWVPFYSTELNKPAMIYCSHGDGHWVHAQCMDLAERTLIHLSAGSSKYYCNEHVEIARALHTP: -0.062 ± 0.062; YWITCCPTCDVDINTWVPFYSTELNKPAMIYCSHGDGHWVHAQCMDLAERTLIHLSAGSCKYYCNEHVEIARALHTP: -0.209 ± 0.12.
Next, YWITCCPTCDVDINTWVPFYSTELNKPAMIYCSHGDGHWVHAQCMDLAERTLIHLSAGSMKYYCNEHVEIARALHTP: -0.081 ± 0.1.
The figure for YWITCCPTCDVDINTWVPFYSTELNKPAMIYCSHGDGHWVHAQCMDLAERTLIHLSAGSQKYYCNEHVEIARALHTP is -0.069 ± 0.08.
With YWITCCPTCDVDINTWVPFYSTELNKPAMIYCSHGDGHWVHAQCMDLAERTLIHLSAGSDKYYCNEHVEIARALHTP, the abundance fitness is 0.01 ± 0.13.
Next, YWITCCPTCDVDINTWVPFYSTELNKPAMIYCSHGDGHWVHAQCMDLAERTLIHLSAGSRKYYCNEHVEIARALHTP: -0.058 ± 0.056.
